Target: SARS-CoV-2 S2 (T1076-Q1208) antigen, trimeric S2 fusion-core-based antigen (SARS-CoV-2 prototype (MN908947.3), UniProt P0DTC2, biotin (Biotinylation Kit))
Test: BLI
Settings: both partners purified

B1: anti-SH neutralizing antibody CV3-25 (antibody, V domains shown)
VH: EVQLVESGAEVKKPGESLKISCKGSGYTFTRYWIGWVRQMPGKGLEWMGIIYPGDSDTRYSPSFQGHVTISADKSISTAYLQWNSLKASDTAMYYCARLPQYCSNGVCQRWFDPWGQGTLVTVSS
VL: EIVLTQSPSSVSASVGDRVTITCRASQGISSWLAWYQQKPGKAPKLLIYAASSLQSGVPSRFSGSGSGTDFTLTISSLQPEDFATYYCQQGNSFPYTFGQGTNLEIK
- binding result: binds

From article PMC12052392 (PLOS Pathogens, 2025)
